Biological target: T1, membrane-bound full-length human HVEM on stable HVEM-transfected HEK293F cells (clone no. 128) (human, UniProt Q92956 39-283)
T1 construct: The same cDNA was also expressed on Sf9 insect cells; also called TNFRSF14; CD270
T1 sequence: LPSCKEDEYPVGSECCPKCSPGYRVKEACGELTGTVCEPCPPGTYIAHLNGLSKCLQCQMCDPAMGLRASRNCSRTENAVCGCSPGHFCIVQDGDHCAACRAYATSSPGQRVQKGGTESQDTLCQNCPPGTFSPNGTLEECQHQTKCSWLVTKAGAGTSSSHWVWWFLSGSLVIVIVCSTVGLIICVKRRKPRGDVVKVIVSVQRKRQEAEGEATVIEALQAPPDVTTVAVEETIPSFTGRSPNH
Assay: FACS, Ab 10 µg/mL then biotinylated BTLA on HVEM-HEK293F
Procedure: Generation of human ‘full-length’ HVEM-transfected HEK293F cells (clone no. 128) is described in Example 1a. Binding of soluble human BTLA, of soluble human CD160, of soluble human LIGHT, and of soluble human TNFβ on surface human HVEM-transfected cells was analysed by FACS analysis. To this end, stable human full-length HVEM-transfected HEK293F cells were put at 10×10⁶ cells/mL in ice-chilled phosphate-buffered saline containing 0.1% BSA (Sigma)/0.05% NaN₃ (PBS/BSA/NaN₃) supplemented with 50 μg/mL human IgGs (blocking possible Fcγ receptors; Sigma) for 10 minutes at 4° C. Then, 10 μL/tube (i.e., 0.1×10⁶ cells) of these cells were incubated with or without 100 μL purified chimeric mouse/human anti-HVEM antibody at 10 μg/mL/tube or a human IgG4/κ (Sigma) negative isotype control at 10 μg/mL/tube for 30 minutes at 4° C. After this (i.e., without washing), cells were subsequently incubated with 1 μg/mL soluble biotinylated human BTLA (Sino Biological Inc), with 10 μg/mL soluble his-tagged human CD160 (Sino Biological Inc), with 1 μg/mL soluble his-tagged human LIGHT (Sino Biological Inc), or with 0.1 μg/mL soluble biotinylated human TNFβ (Sino Biological Inc) in PBS/BSA/NaN₃ for 30 minutes at 4° C. After extensive washing in PBS/BSA/NaN₃, cells were incubated with 1:200 diluted PE-conjugated streptavidin (detection BTLA and TNFβ; Jackson ImmunoResearch) or with biotinylated mouse anti-his antibody (detection CD160 and LIGHT; R&D Systems) at 10 μg/mL for 30 minutes at 4° C. After extensive washing in PBS/BSA/NaN₃, cells were incubated with 1:200 diluted PE-conjugated streptavidin (detection CD160 and LIGHT; Jackson ImmunoResearch) for 30 minutes at 4° C. After extensive washing in PBS/BSA/NaN₃, cells were fixed in 4% formaldehyde in PBS/BSA/NaN₃ for 30 minutes at 4° C. Binding of ligands BTLA, CD160, LIGHT and TNFβ on membrane human HVEM was measured using a flow cytometer (model FACSCalibur; BD Biosciences). For comparison, purified BTLA/HVEM blocking mouse anti-human HVEM antibody counterparts no. 36H12, 45H6, 48H6, 11H7, and 49G4 at 10 μg/mL/tube and a mouse IgG1 (BD Biosciences) negative isotype control at 10 μg/mL/tube were run in parallel.

B1: mouse anti-human HVEM antibody no. 36H12 (antibody, mouse IgG1, V domains shown)
VH: EVQLQQSGAGLVKPGASVKLSCTASGFNIKDTYMHWVRQRPEQGLEWIGRIDPATANTKYDPKFQGKATLTTDTSSNTAYLQLSSLTSEDTAVYYCVTYGYDVSWFAYWGLGALVTVSA
VL: DVLMTQTPLSLPVSLGDQASISCRSSQSIVHSNGITYLEWYLQKPGQSPKLLIYKVSNRFSGVPDRFSGSGSGTDFTLKISRVEAEDLGVYYCFQGSHVPLTFGAGTKLELK
notes: mouse IgG1/kappa; also called 36H12 (mouse)
In the case of B1, the “% blocking of ligand binding” value is reported as over 95%.

Reference: patent publication US20230052646A1 (JJP BIOLOGICS SP Z O O, published 2023)
